Test results published in US20030223975, “Transcriptional regulation of PTP-1B” (Cold Spring Harbor Laboratory, published 2003).

B1: PTP1B enhancer -167/-132 (dsDNA)
DNA 1: ACGCGCGCTATTAGATATCTCGCGGTGCTGGGGCCA
DNA 2: TGGCCCCAGCACCGCGAGATATCTAATAGCGCGCGT
B2: PTP1B enhancer -155/-132 (dsDNA)
DNA 1: AGATATCTCGCGGTGCTGGGGCCA
DNA 2: TGGCCCCAGCACCGCGAGATATCT

Legend:
[1] = biological target: GST-YB-1 (UniProt P67809 P67809:1-324); assay: EMSA; 1 or 10 ng GST-YB-1; binding shown in figure; conditions: tags: N-terminal GST fusion, expressed in E. coli BL21 (plasmid gift of K. Kohno)
From the text: Complex formation of YB-1 with the PTP1B enhancer was confirmed using purified YB-1 from a different source. Expression plasmids for GST and for GST-YB-1 (gift from Dr. K. Kohno) (see Izumi et al., Nucleic Acids Res. 29:1200-07 (2001)) were each separately transfected into E. coli BL21 cells. Recombinant proteins were expressed and purified (see Frangioni and Neel, Anal. Biochem. 210:179-87 (1993)) and analyzed by SDS-PAGE as shown in FIG. 9B (left panel). The interaction between GST-tagged YB-1 and the PTP1B enhancer probe was analyzed by EMSA. Purified GST or GST-YB-1 proteins (1 or 10 ng) were combined with double-stranded DNA ³²P-labelled probe −167/−132 (see above) in the absence or presence of unlabeled double-stranded DNA probe −167/−132 or the deletion mutant probe −167/−132 (Δ−155/−144) (see above), which were tested as competitors of complex formation.

[2] = biological target: T1, YB-1 (B-TEP, purified from Rat1 nuclear extract) (Rattus norvegicus, UniProt P62961 SEQ:1-322); assay: pulldown; purified on -167/-132 affinity column, eluted at 0.8 M NaCl; complex B in EMSA
Description: To purify proteins within the TEP sequence complexes, nuclear extracts were subjected to SP-Sepharose chromatography followed by DNA-affinity chromatography (FIG. 3A). Nuclear extracts (approximately 50 mg) were obtained from Rat1 cells as described above. The extracts were dialyzed against starting buffer (0.1 M NaCl in 20 mM HEPES pH 7.9, 20 mM NaF, 1 mM Na₃VO₄, 1 mM Na₄P₂O₇, 0.125 μM okadaic acid, 1 mM EDTA, 1 mM EGTA, 1 mM DTT, 0.5 mM PMSF, 1 μg/ml leupeptin, 1 μg/ml aprotinin, 1 μg/ml pepstatin, 0.2% NP-40, 5% glycerol) and then applied to SP Sepharose (20 ml) (Pharmacia Biotech, Piscataway, N.J.) equilibrated with the starting buffer. Proteins were eluted in a stepwise manner with 0.2, 0.3, 0.4, 0.6, and 0.8 M NaCl containing nuclear extraction buffer. Each fraction (5 μl aliquots) was assayed by EMSA using ³²P-labelled probes as described above. Fractions containing Complex B (detected by the ³²P-labeled −167/−132 probe, see FIG. 2B) were dialyzed to 0.2 M NaCl containing starting buffer and then applied to a double-stranded DNA-conjugated affinity column. The sequence of the DNA used for affinity chromatography corresponded to nucleotides −167 to −132 from the transcription start site as follows:
The DNA was biotinylated according to standard methods. […]

[3] = biological target: T1, YB-1 (B-TEP, purified from Rat1 nuclear …); assay: EMSA; 10 ng YB-1; complex supershifted by anti-YB-1; anti-GATA1/GATA2 as controls; 25 C; conditions: label: 32P (EMSA) or biotin (pull-down)
Description: To further examine the interaction of YB-1 with the PTP1B enhancer, an EMSA was performed using purified YB-1 (10 ng) and the double-stranded DNA ³²P-labelled −155/−132 probe (see methods described above). A YB-1/DNA probe complex was detected by incubating the complex with the anti-YB-1 antibody (see above). Included as controls were anti-GATA1 (sc266X) and anti-GATA2 (sc-9008X) antibodies (Santa Cruz Biotechnology, Inc., Santa Cruz, Calif.). Purified YB-1 was incubated without antibody or separately with each antibody for 1 hour at 4° C., followed by addition of the DNA probe for 20 minutes at 25° C.

T1 sequence (P62961 other isoform, or with tags, fused parts or gaps): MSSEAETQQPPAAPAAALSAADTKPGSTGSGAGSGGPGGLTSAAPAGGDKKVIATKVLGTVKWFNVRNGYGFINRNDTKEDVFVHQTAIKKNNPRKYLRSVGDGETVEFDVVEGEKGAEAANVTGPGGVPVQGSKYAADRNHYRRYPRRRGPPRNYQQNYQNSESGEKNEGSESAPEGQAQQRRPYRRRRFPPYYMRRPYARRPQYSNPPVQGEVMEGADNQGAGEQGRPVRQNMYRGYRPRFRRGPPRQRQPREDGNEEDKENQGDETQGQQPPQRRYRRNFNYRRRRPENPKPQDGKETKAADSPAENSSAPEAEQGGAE
Sequence of GST-YB-1 (P67809 whole entry, the tested form may be a part, one chain of several): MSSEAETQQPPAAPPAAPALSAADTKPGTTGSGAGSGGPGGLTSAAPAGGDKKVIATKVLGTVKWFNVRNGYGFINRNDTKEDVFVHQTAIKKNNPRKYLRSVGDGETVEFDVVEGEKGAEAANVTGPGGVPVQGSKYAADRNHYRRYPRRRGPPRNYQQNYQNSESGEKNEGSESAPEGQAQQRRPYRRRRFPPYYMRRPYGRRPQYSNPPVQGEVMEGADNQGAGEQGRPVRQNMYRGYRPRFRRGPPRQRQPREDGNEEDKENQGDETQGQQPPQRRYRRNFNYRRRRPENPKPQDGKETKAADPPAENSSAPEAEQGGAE

Binder	binding result [1]	binding result [2]	binding result [3]
B1	binds	binds	–
B2	–	–	binds
